Reference: paper PMC5624674, “CbtA toxin of Escherichia coli inhibits cell division and cell elongation via direct and independent interactions with FtsZ and MreB” (PLoS Genetics, 2017)
Where a chain is given by its changes, count along the chain named.

T1: λCI-CbtA fusion protein (wild-type CbtA toxin of E. coli) (E. coli, UniProt P64524 1-124)
T1 construct: also called YeeV; source: bacterial two-hybrid fusion, produced in E. coli reporter strain FW102 OL2-62; not shown: λCI, N-terminal, kept
T1 sequence: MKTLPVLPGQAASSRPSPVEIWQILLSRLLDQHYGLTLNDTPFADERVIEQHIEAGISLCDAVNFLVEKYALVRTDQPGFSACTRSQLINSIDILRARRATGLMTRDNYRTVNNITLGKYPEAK

T2: λCI-CbtA-V48E (E. coli, UniProt P64524 1-124, V48E)
T2 construct: source: bacterial two-hybrid fusion, produced in E. coli reporter strain FW102 OL2-62; not shown: λCI, N-terminal, kept
T2 sequence: T1 sequence with V48E

B1: α-MreB-E196G (natural protein, E. coli, UniProt P0A9X4 1-347, looked up)
chain: MLKKFRGMFSNDLSIDLGTANTLIYVKGQGIVLNEPSVVAIRQDRAGSPKSVAAVGHDAKQMLGRTPGNIAAIRPMKDGVIADFFVTEKMLQHFIKQVHSNSFMRPSPRVLVCVPVGATQVERRAIRESAQGAGAREVFLIEEPMAAAIGAGLPVSEATGSMVVDIGGGTTEVAVISLNGVVYSSSVRIGGDRFDGAIINYVRRNYGSLIGEATAERIKHEIGSAYPGDEVREIEVRGRNLAEGVPRGFTLNSNEILEALQEPLTGIVSAVMVALEQCPPELASDISERGMVLTGGGALLRNLDRLLMEETGIPVVVAEDPLTCVARGGGKALEMIDMHGGDLFSEE
notes: not shown: RNA polymerase α subunit N-terminal domain, N-terminal, kept
B2: α-MreB-I126V (natural protein, E. coli, UniProt P0A9X4 1-347, looked up)
chain: B1 chain with I126V, G196E
notes: as for B1
B3: α-MreB-E262G (natural protein, E. coli, UniProt P0A9X4 1-347, looked up)
chain: B1 chain with G196E, E262G
notes: as for B1
B4: α-MreB-V173A (natural protein, E. coli, UniProt P0A9X4 1-347, looked up)
chain: B1 chain with V173A, G196E
notes: as for B1
B5: α-FtsZ fusion protein (wild-type E. coli FtsZ) (natural protein, UniProt P0A9A6 1-383, looked up)
chain: MFEPMELTNDAVIKVIGVGGGGGNAVEHMVRERIEGVEFFAVNTDAQALRKTAVGQTIQIGSGITKGLGAGANPEVGRNAADEDRDALRAALEGADMVFIAAGMGGGTGTGAAPVVAEVAKDLGILTVAVVTKPFNFEGKKRMAFAEQGITELSKHVDSLITIPNDKLLKVLGRGISLLDAFGAANDVLKGAVQGIAELITRPGLMNVDFADVRTVMSEMGYAMMGSGVASGEDRAEEAAEMAISSPLLEDIDLSGARGVLVNITAGFDLRLDEFETVGNTIRAFASDNATVVIGTSLDPDMNDELRVTVVATGIGMDKRPEITLVTNKQVQQPVMDRYQQHGMAPLTQEQKPVAKVVNDNAPQTAKEPDYLDIPAFLRKQAD
notes: also called λCI-FtsZ; Eco FtsZ; not shown: RNA polymerase α subunit N-terminal domain, N-terminal, kept
B6: α-FtsZ-D180K (natural protein, E. coli, UniProt P0A9A6 1-383, looked up)
chain: B5 chain with D180K
notes: as for B1
B7: α-FtsZ-D180N (natural protein, E. coli, UniProt P0A9A6 1-383, looked up)
chain: B5 chain with D180N
notes: as for B1
B8: α-FtsZ-L169P (natural protein, E. coli, UniProt P0A9A6 1-383, looked up)
chain: B5 chain with L169P
notes: as for B1
B9: α-FtsZ-S177P (natural protein, E. coli, UniProt P0A9A6 1-383, looked up)
chain: B5 chain with S177P
notes: as for B1

Tests used:
Test in all cases: two-hybrid
[1] = target: T3, λCI-RodZNTD (residues 2–84) (E. coli, UniProt P27434 2-84); details: partners not purified
T3 construct: also called cytoplasmic N-terminal domain of RodZ; not shown: λCI, N-terminal, kept

[2] = target: T1, λCI-CbtA fusion protein (wild-type CbtA …); details: partners not purified
[3] = target: the molecule itself
[4] = target: T4, λCI-ZipACTD (residues 186–328) (E. coli, UniProt P77173 186-328); details: partners not purified
T4 construct: also called C-terminal domain of ZipA; not shown: λCI, N-terminal, kept

[5] = target: T2, λCI-CbtA-V48E; details: partners not purified
[6] = target: B5; details: partners not purified

T3 sequence (P27434 2-84): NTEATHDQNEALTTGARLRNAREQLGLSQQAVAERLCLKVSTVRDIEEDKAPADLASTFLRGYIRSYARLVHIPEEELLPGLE

**Q.** With B1 as the binder, how does the “percent reduction of lacZ expression against wild-type α-MreB” value [1] read?
**A.** < 30%

**Q.** For B2, which “percent reduction of lacZ expression against wild-type α-MreB” value [1] is on record?
**A.** < 30%

**Q.** Which “percent reduction of lacZ expression against wild-type α-MreB” value [1] does the source give for B3 here?
**A.** < 30%

**Q.** Which “percent reduction of lacZ expression against wild-type α-MreB” value [1] does the source give for B4 here?
**A.** < 30%

**Q.** B5 was tested. Which “fold increase in lacZ expression” value [2] did it give?
**A.** 18 fold

**Q.** And the “fold increase in lacZ expression” value [3]?
**A.** 4 fold

**Q.** And the “fold increase in lacZ expression” value [4]?
**A.** 10 fold

**Q.** With B6 as the binder, how does the “fold increase in lacZ expression” value [5] read?
**A.** 9 fold

**Q.** B7 was tested. Which “percent reduction of lacZ expression against wild-type α-FtsZ” value [6] did it give?
**A.** < 25%

**Q.** With B8 as the binder, how does the “percent reduction of lacZ expression against wild-type α-FtsZ” value [6] read?
**A.** < 25%

**Q.** B9 was tested. Which “percent reduction of lacZ expression against wild-type α-FtsZ” value [6] did it give?
**A.** < 25%
